{
  "source": "the PETadex activity labels (doi:10.1002/cbic.201800097)",
  "proteins": {"B1": {"name": "unnamed (protein)", "chain": "NPYARGPNPTAASLEASAGPFTVRSFTVSRPSGYGAGTVYYPTNAGGTVGAIAIVPGYTARQSSIKWWGPRLASHGFVVITIDTNSTLDQPSSRSSQQMAALRQVASLNGTSSSPIYGKVDTARMGVMGWAMGGGGSLISAANNPSLKAAAPQAPWDSSTNFSSVTVPTLIFACENDSIAPVNSSALPIYDSMSRNAKQFLEINGGSHSCANSGNSNQALIGKKGVAWMKRFMDNDTRYSTFACENPNSTRVSDFRTANCS"}, "B2": {"name": "unnamed (protein)", "chain": "B1 chain with W130A, A131S"}, "B3": {"name": "unnamed (protein)", "chain": "B1 chain with A131S, D177A"}},
  "note": "Numbering of substitutions follows the chain as printed.",
  "data": [
    {"substrate": "BHET", "experiment": "Proxy for plastic degradation [Released monomer concentration (HPLC/LC-MS) (MHET+TPA)]", "conditions": "pH 7.5", "units": {"Proxy for plastic degradation": "µM"}, "values": [
      {"protein": "B1", "Proxy for plastic degradation": 0.06},
      {"protein": "B2", "Proxy for plastic degradation": 0.23},
      {"protein": "B3", "Proxy for plastic degradation": 0.03}
    ]}
  ]
}
